Experimental data as given in paper PMC12356840, “Structural basis for substrate recognition mechanism of human SLC26A7” (Nature Communications, 2025).

Target: the molecule itself
Assay: cryo-EM structure; purified SLC26A7 in 25 mM Tris pH 8.0, 150 mM NaCl, 0.02% GDN, 5-10 mg/ml; apo sample and sample with 20 mM sodium iodide; dimer model obtained by C2 symmetry

B1: human SLC26A7 (solute carrier family 26 member 7) (natural protein, UniProt Q8TE54 1-656, looked up)
chain: MTGAKRKKKSMLWSKMHTPQCEDIIQWCRRRLPILDWAPHYNLKENLLPDTVSGIMLAVQQVTQGLAFAVLSSVHPVFGLYGSLFPAIIYAIFGMGHHVATGTFALTSLISANAVERIVPQNMQNLTTQSNTSVLGLSDFEMQRIHVAAAVSFLGGVIQVAMFVLQLGSATFVVTEPVISAMTTGAATHVVTSQVKYLLGMKMPYISGPLGFFYIYAYVFENIKSVRLEALLLSLLSIVVLVLVKELNEQFKRKIKVVLPVDLVLIIAASFACYCTNMENTYGLEVVGHIPQGIPSPRAPPMNILSAVITEAFGVALVGYVASLALAQGSAKKFKYSIDDNQEFLAHGLSNIVSSFFFCIPSAAAMGRTAGLYSTGAKTQVACLISCIFVLIVIYAIGPLLYWLPMCVLASIIVVGLKGMLIQFRDLKKYWNVDKIDWGIWVSTYVFTICFAANVGLLFGVVCTIAIVIGRFPRAMTVSIKNMKEMEFKVKTEMDSETLQQVKIISINNPLVFLNAKKFYTDLMNMIQKENACNQPLDDISKCEQNTLLNSLSNGNCNEEASQSCPNEKCYLILDCSGFTFFDYSGVSMLVEVYMDCKGRSVDVLLAHCTASLIKAMTYYGNLDSEKPIFFESVSAAISHIHSNKNLSKLSDHSEV
notes: full-length wild-type human SLC26A7 (also known as SUT2), UniProt Q8TE54; Homodimer (domain-swapped) in the cryo-EM structures; both were used to capture the protein on the way to the structure; The iodide-loaded sample had 20 mM sodium iodide throughout the purification; also called SUT2; SLC26A7_apo
stoichiometry N: 2
